Earlier results, collected in patent publication US5223421A, “Identification of methionine Nα-acetyltransferase” (The General Hospital Corporation, priority 1990, dated 1993).

Molecular target: T1, yeast methionine acetyltransferase (M-N^α AT) (Saccharomyces cerevisiae, UniProt Q06504)
T1 construct: a crude yeast homogenate from the aaa1 mutant strain; endogenous in cells; host or cells: Saccharomyces cerevisiae strain T3A-a (aaa1), crude lysate
T1 sequence (Q06504 1-195): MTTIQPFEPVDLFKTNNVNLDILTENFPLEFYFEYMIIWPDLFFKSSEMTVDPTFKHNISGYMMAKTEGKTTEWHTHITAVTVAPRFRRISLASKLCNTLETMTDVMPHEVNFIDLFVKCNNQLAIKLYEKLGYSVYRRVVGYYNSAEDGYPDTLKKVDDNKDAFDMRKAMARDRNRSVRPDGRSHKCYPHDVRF
T1 sequence (Q12387 2-796 partner limits assumed): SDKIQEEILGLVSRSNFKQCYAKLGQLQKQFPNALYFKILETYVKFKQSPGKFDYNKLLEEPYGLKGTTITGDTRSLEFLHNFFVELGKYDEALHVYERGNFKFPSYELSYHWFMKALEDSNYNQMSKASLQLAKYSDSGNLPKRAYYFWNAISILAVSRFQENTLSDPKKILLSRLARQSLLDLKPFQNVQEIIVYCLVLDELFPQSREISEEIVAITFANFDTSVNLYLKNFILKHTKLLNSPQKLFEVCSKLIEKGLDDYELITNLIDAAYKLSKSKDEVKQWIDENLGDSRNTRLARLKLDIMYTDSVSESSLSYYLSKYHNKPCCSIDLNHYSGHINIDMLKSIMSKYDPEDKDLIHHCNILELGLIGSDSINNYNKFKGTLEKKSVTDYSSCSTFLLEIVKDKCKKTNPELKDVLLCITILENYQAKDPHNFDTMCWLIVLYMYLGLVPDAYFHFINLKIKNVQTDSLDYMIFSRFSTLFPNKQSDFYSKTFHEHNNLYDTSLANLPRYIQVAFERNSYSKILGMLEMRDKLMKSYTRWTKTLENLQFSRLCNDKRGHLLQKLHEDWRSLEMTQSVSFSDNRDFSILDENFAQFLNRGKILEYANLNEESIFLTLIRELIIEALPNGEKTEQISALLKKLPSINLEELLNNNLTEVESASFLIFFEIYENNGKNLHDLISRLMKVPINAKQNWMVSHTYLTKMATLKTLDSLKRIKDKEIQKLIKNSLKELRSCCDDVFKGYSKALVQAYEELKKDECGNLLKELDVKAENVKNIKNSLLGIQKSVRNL
Settings: Lee et al., J. Biol. Chem. 265:3603-3606 (1990); cited from earlier work

24 residue synthetic peptide mimicking the NH2 terminus of yeast actin: 24 residue synthetic peptide mimicking the NH2 terminus of yeast actin (MDSEVAALVIDNGSGMCKAGFAGD; UniProt P60010 1-24, looked up, fragment)
N^α -acetylation by yeast M-N^α AT: will acetylate
